Ends that are not written are not given here.
How the values were obtained:
[1] = Evaluation for aggregability by stirring in PBS (absorbance at 350 nm, monomer by RP-HPLC); type: physicochemical; settings: 1 mg/mL in PBS
Procedure: Each of the GLP-1 analogue and WT-GLP-1 in Example 1 was dissolved in PBS at a concentration of 1 mg/mL, and the amount of monomer was determined by RP-HPLC. 450 μL of each of the same solutions was placed into a glass vial along with a stirring bar, and the solution was stirred with a stirrer at room temperature for 20 hours. After stirring, the absorbance of the solution at 350 nm was determined (DU640, manufactured by Beckman). As for the supernatant after centrifugation, the monomer quantification by RP-HPLC and CD measurement (J-725, manufactured by Jasco Co.) were carried out.
System: NanoSpace SI-2 (manufactured by Shiseido Co., Ltd.)
Column: Capcell PAK C18, 1 mm×75 mm (manufactured by Shiseido Co., Ltd.)
Eluent A: water/acetonitrile/TFA=949/50/1
Eluent B: water/acetonitrile/TFA=50/949/1
Elution method: Gradient from 80/20 to 20/80 (Eluent A/Eluent B)
The aggregability of Peptide 3 was evaluated in the same manner as the method shown in Example 2.

[2] = peptide 100 μg/mL, 100 mM HEPES pH 7.4, 25° C., 18 hours
Procedure: Further, zinc chloride was dissolved in Milli-Q water to give a final concentration of 0.1 mg/mL. 1 M HEPES (N-[2-hydroxyethyl]piperazine-N′-[2-ethanesulfonic acid]) buffer (pH 7.4) was separately prepared. To each of the aqueous solutions of peptide, the HEPES buffer, Milli-Q water and the aqueous solution of zinc chloride were sequentially added, whereby samples were prepared such that the final volume was 1 mL, the final concentration of peptide was 100 μg/mL, the final concentration of HEPES (pH 7.4) was 100 mM, and the ratio of zinc chloride to the mole number of peptide became various ratios (Z/P=0 to 30). These samples were let stand at room temperature (25° C.) for 18 hours. Each mixture was centrifuged (10,000 g, 3 min), and the concentration of peptide in the supernatant was determined by RP-HPLC.

[3] = Precipitation of peptide as zinc salt, peptide in supernatant by RP-HPLC; type: physicochemical; settings: Z/P=15, peptide 1 mg/mL, 100 mM HEPES pH 7.4, 25° C., 18 hours
Procedure: Further, zinc chloride was dissolved in Milli-Q water to give a final concentration of 1 mg/mL. 1 M HEPES buffer (pH 7.4) was separately prepared. To the aqueous solution of peptide, the HEPES buffer, Milli-Q water and the aqueous solution of zinc chloride were sequentially added, whereby a sample was prepared such that the final volume was 30 mL, the final concentration of peptide was 1 mg/mL, the final concentration of HEPES (pH 7.4) was 100 mM, and the ratio of zinc chloride to Peptide 1 became Z/P=1. The resulting solution was let stand at room temperature (25° C.) for 18 hours. […] The solution was subjected to a centrifugation procedure (10,000 g, 3 min) and decantation, whereby the white precipitate and supernatant were separated.
Further, zinc chloride was dissolved in Milli-Q water to give a final concentration of 1 mg/mL. 1 M HEPES buffer (pH 7.4) was separately prepared. […] The resulting solution was let stand at room temperature (25° C.) for 18 hours. […] The solution was subjected to a centrifugation procedure (10,000 g, 3 min) and decantation, whereby the white precipitate and supernatant were separated.

[4] = In vitro release test of GLP-1 from Zinc/GLP-1 complex; type: physicochemical; settings: PBS pH 7.4, 37° C.
Procedure: The quantification of GLP-1 analogue was carried out using RP-HPLC.
400 μg of each of WT-GLP-1 and GLP-1 analogue (Peptide 1) was dissolved in a 1 mM HCl solution (200 μL, pH: 2.8) containing 2 mg/mL zinc chloride. 100 μL of each of the resulting solutions was added to E-tube and diluted with a 1 mM HCl solution, whereby a 1 mg/mL solution was prepared. Then, 20 μL of PB (pH: 8.9, 100 mM) was added thereto, whereby a complex of Zinc/GLP-1 was formed. After the resulting mixture was centrifuged at 15,000 rpm for 5 minutes, the supernatant was removed, whereby a Zinc/GLP-1 complex was obtained.
PBS (0.5 mL, pH: 7.4) was added to E-tube containing the Zinc/GLP-1 complex at 37° C. The E-tube was centrifuged at different time points, and the supernatant was sampled, and 0.5 mL of PBS was freshly added thereto. 20 μL of 0.2 M HCl was added to 200 μL of the sample, and quantification was carried out by RP-HPLC.

Human GLP-1 receptor = Human GLP-1 receptor (human, UniProt P43220); assay: cell-based or functional assay

## Peptide 3: comparative GLP-1 analogue with an isoelectric point nearly equal to that of Peptide 1 (HGEGTFTSDVKSYLEGQAAKEFIAWLVKGRG)
[1]; stirred 20 hours
  aggregability compared with WT-GLP-1: an increase in the aggregability compared with that of WT-GLP-1 was not observed
[1]; stirred at room temperature for 20 hours
  UV 350 nm Absorbance: 0.06
[1]; stirred at room temperature for 20 hours, supernatant after centrifugation
  RP-HPLC Amount of residual monomer (%): 95%

## HGEGTFTSDVSSYLEGQAAKEFIRWLVKGRG [Peptide 1, [Gly^8]-[Arg^30]-GLP-1(7-37)]
[2]
  ratio of added zinc to peptide (Z/P) when the solubility was the lowest: around 1

## CC[C@H](C)[C@H](NC(=O)[C@H](Cc1ccccc1)NC(=O)[C@H](CCC(=O)O)NC(=O)[C@H](CCCCN)NC(=O)[C@H](C)NC(=O)[C@H](C)NC(=O)[C@H](CCC(N)=O)NC(=O)CNC(=O)[C@H](CCC(=O)O)NC(=O)[C@H](CC(C)C)NC(=O)[C@H](Cc1ccc(O)cc1)NC(=O)[C@H](CO)NC(=O)[C@H](CO)NC(=O)[C@@H](NC(=O)[C@H](CC(=O)O)NC(=O)[C@H](CO)NC(=O)[C@@H](NC(=O)[C@H](Cc1ccccc1)NC(=O)[C@@H](NC(=O)CNC(=O)[C@H](CCC(=O)O)NC(=O)[C@H](C)NC(=O)[C@@H](N)Cc1c[nH]cn1)[C@@H](C)O)[C@@H](C)O)C(C)C)C(=O)N[C@@H](C)C(=O)N[C@@H](Cc1c[nH]c2ccccc12)C(=O)N[C@@H](CC(C)C)C(=O)N[C@H](C(=O)N[C@@H](CCCCN)C(=O)NCC(=O)N[C@@H](CCCNC(=N)N)C(=O)NCC(=O)O)C(C)C [WT, GLP-1(7-37)]
[3]
  peptide precipitated as a zinc salt: 95.7%
[4]
  release observed until day: 14 days

B1: [Gly^8]-[Arg^30]-GLP-1(7-37) (peptide)
peptide: HGEGTFTSDVSSYLEGQAAKEFIRWLVKGRG
Human GLP-1 receptor
  EC50 value for cAMP production: 0.0902 nM

Source: US20090286724A1, “AGGREGABLE GLP-1 ANALOGUE AND SUSTAINED-RELEASE PHARMACEUTICAL COMPOSITION” (CHUGAI SEIYAKU KABUSHIKI KAISHA, priority 2005, published 2009)
